For 1 substance, Km, kcat and kcat/Km results are on record in article PMC2855648.

As usually defined, the Km is the substrate concentration at which the rate is half of its maximum. A word on the kcat: it is the number of substrate molecules converted per active site and unit of time at saturation. One may read the kcat/Km as the second-order rate constant that governs catalysis at low substrate concentration.

Test in all cases: initial velocity, spectrophotometric DTP/DTNB thiol assay
Common to all, as to format: biochemical, Escherichia coli

In series [1] the test system is CC(=O)SCCNC(=O)CCNC(=O)[C@H](O)C(C)(C)COP(=O)(O)OP(=O)(O)OC[C@H]1O[C@@H](n2cnc3c(N)ncnc32)[C@H](O)[C@@H]1OP(=O)(O)O. The settings on record: fixed saturating kanamycin B, optimum pH 5.6, room temperature.
The subject of series [2] is NC[C@@H]1O[C@H](O[C@H]2[C@@H](O)[C@H](O[C@@H]3[C@@H](O)[C@H](N)C[C@H](N)[C@H]3O[C@H]3O[C@H](CN)[C@@H](O)[C@H](O)[C@H]3N)O[C@@H]2CO)[C@H](N)[C@@H](O)[C@@H]1O. The settings on record: fixed saturating AcCoA, optimum pH 5.6, room temperature.
The subject of series [3] is NC[C@H]1O[C@H](O[C@H]2[C@H](O)[C@@H](O[C@H]3O[C@H](CO)[C@@H](O)[C@H](N)[C@H]3O)[C@H](N)C[C@@H]2N)[C@H](N)[C@@H](O)[C@@H]1O. The conditions noted are these: fixed saturating AcCoA, optimum pH 5.6, room temperature.

“AAC(6′)-Ib-wt (Escherichia coli; R102W/Y179D)”: the Km was 35 ± 2 µM in series [1], 20 ± 1 µM in series [2] and 0.27 ± 0.01 µM in series [3]. The kcat in series [1] was found to be 2.32 ± 0.0667 s⁻¹; in series [2] it was 3.08 ± 0.05 s⁻¹; in series [3] it was 2.27 ± 0.05 s⁻¹. The results for the kcat/Km in series [1], in series [2] and in series [3] were 66700 M⁻¹ s⁻¹, 150000 M⁻¹ s⁻¹ and 8.38e+06 M⁻¹ s⁻¹, respectively.
